Target: WISp39 (UniProt Q9UIM3)
Assay: anti-GFP co-IP, Western blot
Details: reference: wild type; sites S2

Coronin 1B (from UniProt Q9BR76) S2A
binding against the reference: lost
